Results: the supplement of paper PMC12764529
± gives the half width of the 95% confidence interval.

Key:
[1] = folding stability dG unfold from trypsin proteolysis; higher = more stable
Method: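 Folding stability of de novo designed mini-proteins (<80 aa, no Cys; designed by TrROS, TrMRF, ProteinMPNN and the joint model) was measured by cDNA display proteolysis with trypsin and chymotrypsin. Each protease was used at 11 concentrations in a threefold dilution series plus a no-protease condition. K50 was inferred by Bayesian fitting of sequencing counts, and dG unfold was derived against a sequence-predicted unfolded-state K50 (Tsuboyama et al. method). Sequences shown include variable-length N-terminal GS-type padding (SAGGSAGG...) inside a display construct carrying a PA tag. Rows were kept only if the AF2 dimer inter-PAE was >15, to exclude likely homo-oligomers.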

[2] = folding stability dG unfold (combined trypsin and chymotrypsin); higher = more stable
Procedure, shortened: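 Unfolding free energy was derived, per protease or combined, by relating Bayesian-fitted K50 values from sequencing counts to a sequence-predicted unfolded-state K50 and a shared folded-state K50. The underlying digests exposed cysteine-free mini-proteins under 80 residues, in a PA-tagged cDNA display construct, to trypsin and chymotrypsin at 11 threefold-diluted concentrations and to a no-protease condition. A filter kept only designs with AlphaFold2 dimer inter-PAE above 15.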

| Sequence | folding stability dG unfold [1] | folding stability dG unfold [2] |
| --- | --- | --- |
| SAGGSAGGSAGGTEEEALEKAERLAKELGVDLKDVKILNPPDKFEAVFTIPGTGENIKLSAGGSAGGSAGGS [r10_161_JUSTAS] | -0.505 ± 0.46 kcal/mol | -0.601 ± 0.97 kcal/mol |
| SAGGSAGGSAGGTIRDAVKEGKPFKIRMRGKKGKTHTVTIRPDKPVKLPGISSIQVERDSAGGSAGGSAGGS [r10_700_TrROS] | -0.285 ± 0.27 kcal/mol | -0.707 ± 0.8 kcal/mol |
| SAGGSAGGSAGGTPFKAKDPKTDKVYLGEKDPVSGKVTITDPNTGNPIIVPGGEIEFIVSAGGSAGGSAGGS [r10_28_JUSTAS] | 0.00952 ± 0.041 kcal/mol | -0.282 ± 0.16 kcal/mol |
| SAGGSAGGSAGGVVKFPDDVLIERVETLPDGTVKIKVYKRIPGKGSPVEEIEFEDPGSSSAGGSAGGSAGGS [r10_934_JUSTAS] | 0.235 ± 0.024 kcal/mol | < -1 kcal/mol |
| SAGGSAGGSAGGWKTISVNELQDILREEGKPMTADDLIEDPNIKVEENPGNGMPTIEIPPSAGGSAGGSAGG [r7_180_TrROS] | -0.891 ± 0.24 kcal/mol | -0.77 ± 0.79 kcal/mol |
| SAGGSAGGSAGGYFIRYPGNGREIMIPPDDIEDFLDTLPPGFPPENVKIYPFDPNGKPISAGGSAGGSAGGS [r10_13_TrROS] | -0.242 ± 0.2 kcal/mol | < -1 kcal/mol |
| SAGGSAGGSAGKITIHMDPEGNYMVKTPGNERQFDSPEDADELADEFLLNGLPIEIHPHPSAGGSAGGSAGG [r17_35_TrROS] | -0.753 ± 0.36 kcal/mol | < -1 kcal/mol |
| SAGGSAGGSAGKKVVTIDIPIDNPEELEVAEEIAREAAKELGVPPEEIPVTWEGNYLRIESAGGSAGGSAGG [r11_218_TrMRF] | -0.423 ± 0.075 kcal/mol | < -1 kcal/mol |
| SAGGSAGGSAGKSPSESEVVITPETGVVEENGVKIKVTLTITTYSPSSTVTSTTKDPKLLSAGGSAGGSAGG [r11_551_JUSTAS] | -0.0836 ± 0.045 kcal/mol | -0.356 ± 0.15 kcal/mol |
| SAGGSAGGSAGLNITYTTTITYPDGTVVTEPVVSSGSLEEAIARARELEKKHPNVEVEVSPEGSAGGSAGGS [r12_268_JUSTAS] | 0.396 ± 0.079 kcal/mol | -0.113 ± 0.23 kcal/mol |
| SAGGSAGGSAGMELAEEVARKGKPGTLVTFTPPGGRVQLATVRGDEVTPSGLSPDYSVTLTSAGGSAGGSAG [r3_244_JUSTAS] | -0.371 ± 0.26 kcal/mol | < -1 kcal/mol |
| SAGGSAGGSAGMIVIETPLSEYEKLKSPDIEVLEKSEGKVVIEIKVPPEPFYDEEGKPLKSAGGSAGGSAGG [r11_828_JUSTAS] | 0.804 ± 0.034 kcal/mol | 0.286 ± 0.13 kcal/mol |
| SAGGSAGGSAGMKIIVKSKEEAEKIAKEIAKKLGIEKKIKKIEIIVIPYKKTKDGKIEKISAGGSAGGSAGG [r17_237_TrROS_Hall] | 0.36 ± 0.19 kcal/mol | -0.184 ± 0.61 kcal/mol |
| SAGGSAGGSAGMPPGSIKVTVTSTAPDGTPSTTESTIPPSQVDKVKAEAAAKGWTVSFTGSAGGSAGGSAGG [r11_603_JUSTAS] | 0.654 ± 0.034 kcal/mol | 0.245 ± 0.068 kcal/mol |
| SAGGSAGGSAGMPPNTVVLRESLEPGRVVLTLAVVTPGSVASVEVTEEFPVVPGTGVVVGSAGGSAGGSAGG [r11_66_JUSTAS] | 0.706 ± 0.038 kcal/mol | 0.139 ± 0.13 kcal/mol |
| SAGGSAGGSAGMTISLSDLTKKGDIEKAKEEVEEIKKKNPEPKVEKVSVPPEKNEIYKLESAGGSAGGSAGG [r11_365_JUSTAS] | -0.308 ± 0.22 kcal/mol | < -1 kcal/mol |
| SAGGSAGGSAGMTLEEIEELLKKEGIDPSTLGNEKIAEIIKKKNPNTTITSSPEGTGYISKSAGGSAGGSAG [r3_375_JUSTAS] | 0.27 ± 0.18 kcal/mol | < -1 kcal/mol |
| SAGGSAGGSAGMVFPVDGKEVVIDRGADDALRVTVFGPDGSASEAVFPGKDIPTVLKALSSAGGSAGGSAGG [r11_934_TrMRF] | -0.23 ± 0.24 kcal/mol | < -1 kcal/mol |
| SAGGSAGGSAGPEIRVDDLEDGVVRITTVNVDPSTGAPVATTTTTLPRESLSPEVVALLSSAGGSAGGSAGG [r11_376_JUSTAS] | 0.046 ± 0.038 kcal/mol | < -1 kcal/mol |
| SAGGSAGGSAGPEIVLEGKPVELEVVEVGDKPVLIARFPDHYVVIDPEPDVIRLFSSEELSAGGSAGGSAGG [r11_9_TrMRF] | -0.0154 ± 0.018 kcal/mol | -0.449 ± 0.11 kcal/mol |
| SAGGSAGGSAGPKPIRIKVKWRNEKDGEKRKVTIPIPPGMPLEELIKNADPNQVRDVEIVSAGGSAGGSAGG [r11_386_TrROS] | -0.276 ± 0.1 kcal/mol | < -1 kcal/mol |
| SAGGSAGGSAGQPKIGVLKEELIKETYTRPVPDSDETVKEERIVVKIIKKKLNIPENLLLSAGGSAGGSAGG [r17_530_JUSTAS] | -0.447 ± 0.27 kcal/mol | < -1 kcal/mol |
| SAGGSAGGSAGREEVEEAIRAGETVTLEEKSPEGVIPVITVRAEFPDPDKVLVETEVKPLSAGGSAGGSAGG [r11_710_JUSTAS] | 0.455 ± 0.083 kcal/mol | -0.646 ± 0.32 kcal/mol |
| SAGGSAGGSAGSLPEKLKEAFPDLGVTVTSVDPSGTVTVEVDGPEEVKEKVEKAVAEILKSAGGSAGGSAGG [r11_418_JUSTAS] | -0.576 ± 0.33 kcal/mol | < -1 kcal/mol |

| Sequence | folding stability dG unfold [1] | folding stability dG unfold [2] |
| --- | --- | --- |
| SAGGSAGGSAGSPIPVEVKVTTFGPGGVPREAELLTGDPAAFEKAIGKPLPDGSKVEVLLSAGGSAGGSAGG [r11_671_JUSTAS] | -0.129 ± 0.083 kcal/mol | -0.955 ± 0.48 kcal/mol |
| SAGGSAGGSAGSSLPPDARYTTKVTVKTPFSKTLSLSEYQKLPPSEIKGIEIEKEVVPVESAGGSAGGSAGG [r11_899_JUSTAS] | -0.198 ± 0.44 kcal/mol | -0.927 ± 0.92 kcal/mol |
| SAGGSAGGSAGTTTKITEIKELPTDYVELTMKYPDGTTIKKLIPKSIYKDLPVSSTFSGGSAGGSAGGSAGG [r11_943_JUSTAS] | -0.0564 ± 0.14 kcal/mol | < -1 kcal/mol |
| SAGGSAGGSAGVIEVPIEELENLPDDVKVVPTENTAVIYNEKNPIVVPKNEPVLIAPSDKSAGGSAGGSAGG [r17_91_TrMRF] | 0.937 ± 0.051 kcal/mol | < -1 kcal/mol |
| SAGGSAGGSAKKIDVEVDEPVPNGYYRATIRVPGPGKPIEVNVPGPWEDAERKAKELAKELSAGGSAGGSAG [r3_104_TrROS] | -0.964 ± 0.55 kcal/mol | < -1 kcal/mol |
| SAGGSAGGSAKKTAVIELIDPKDPKPKTITIPFDLKDGKTSLEELKKLVPDYTITSIAVFDDSAGGSAGGSA [r18_494_TrMRF] | -0.182 ± 0.15 kcal/mol | < -1 kcal/mol |
| SAGGSAGGSAKPLTVDEILKNLDFPPNMEIEDIEVDQDENEGKPVISIEMYSPGQPYRPTIVSAGGSAGGSA [r18_354_TrROS] | -0.151 ± 0.042 kcal/mol | < -1 kcal/mol |
| SAGGSAGGSALSPDDVEPIDEEPFHNPGGNPMNIGIWKNPDDGKPFIRNPGNGNPFPADDLSAGGSAGGSAG [r3_181_TrROS] | -0.498 ± 0.12 kcal/mol | < -1 kcal/mol |
| SAGGSAGGSAMKEYVVASRGYDPATGLYSLTIESSEGKKVKNVTFDDPSNPEKAINEAIAKESAGGSAGGSA [r18_479_JUSTAS] | -0.713 ± 0.34 kcal/mol | -0.829 ± 0.35 kcal/mol |
| SAGGSAGGSAMTIQINNLPPEKIEEAADDHGIDTQRNEESDSYYIEMPPNDMDEIKEALGWSAGGSAGGSAG [r3_354_TrROS] | 0.725 ± 0.052 kcal/mol | 0.222 ± 0.17 kcal/mol |
| SAGGSAGGSAPIVRLEFGPVIPLPDMSPDELKEKTAELVPEEYREKIKIVSVLDPDNPKEISAGGSAGGSAG [r3_340_TrMRF] | -0.269 ± 0.12 kcal/mol | < -1 kcal/mol |
| SAGGSAGGSAPKPKIEPVNNTITIDIPPKENVQIFFPNGKQEEFPVEPGKEIKIPPGMYLYPSAGGSAGGSA [r18_452_TrROS] | -0.356 ± 0.055 kcal/mol | < -1 kcal/mol |
| SAGGSAGGSASAPADETLTAELTSPESDERYTVLVTPEGMTAVDEAGRTTPLSPAVLVSVTAPSAGGSAGGS [r20_35_JUSTAS] | 0.862 ± 0.034 kcal/mol | 0.0934 ± 0.075 kcal/mol |
| SAGGSAGGSASIEVEAEPAEIEKVAEEAPEDEEVLVRDPKTGRVYLVKPDEVVLLREVPALLSAGGSAGGSA [r18_246_JUSTAS] | -0.238 ± 0.086 kcal/mol | -0.821 ± 0.48 kcal/mol |
| SAGGSAGGSASKYVKVTVRLTPPDGTTRTVEITDPNKTVEEIIASLPSDEPVEVTEVEELPPSAGGSAGGSA [r18_32_JUSTAS] | 0.197 ± 0.18 kcal/mol | -0.806 ± 0.49 kcal/mol |
| SAGGSAGGSASMTITLPGMSLEEAKAAAEAHPDHPVLLETPEGRLIEITPEGVVTVRPLPESAGGSAGGSAG [r3_269_JUSTAS] | -0.147 ± 0.029 kcal/mol | -0.937 ± 0.17 kcal/mol |
| SAGGSAGGSATIKIKVPPGEPYMIRIRWPDGKSHEHNVPPGEEITIPPDNFDGITPIEIQPYSAGGSAGGSA [r18_210_TrROS] | 0.288 ± 0.19 kcal/mol | 0.11 ± 0.56 kcal/mol |
| SAGGSAGGSENNIVIKMKMEMPNQEMKFRFPIPADKLKDALKEGKPIKFPNGMNVRITEIIPVSAGGSAGGS [r12_432_TrROS] | -0.864 ± 0.81 kcal/mol | < -1 kcal/mol |
| SAGGSAGGSGMISKTEVERLPDGTVIERKEYPEGGLTTLKIYKVPPDGVPTLVEEKLVPEKLISAGGSAGGS [r12_695_JUSTAS] | -0.612 ± 0.17 kcal/mol | -0.69 ± 0.24 kcal/mol |
| SAGGSAGGSGNPDTPTSPVFVVIEKTTTVVPAPNGLYPKRTSVKISIPGGAAAGAEELIAELLSAGGSAGGS [r12_933_JUSTAS] | -0.2 ± 0.13 kcal/mol | < -1 kcal/mol |
| SAGGSAGGSKKVVTYESVTLTVLVERTLPDPEGNPVTTTRVVEEPVRVTKVDFDTKVETYVVGSAGGSAGGS [r20_58_JUSTAS] | -0.0343 ± 0.14 kcal/mol | -0.623 ± 0.33 kcal/mol |
| SAGGSAGGSMKPEVVEEIIKKAEEEGYEIDSVTVNPETNVPVIHFNWPSPELAEKDPELREAASAGGSAGGS [r12_482_TrMRF] | 0.13 ± 0.12 kcal/mol | < -1 kcal/mol |
| SAGGSAGGSMPPEELRKKILEDPNVEVLSIEPPGPEVTLITTKYPRETETPTTETVTEKLPVPLSAGGSAGG [r6_154_JUSTAS] | -0.392 ± 0.33 kcal/mol | -0.568 ± 0.33 kcal/mol |
